Binding signal, binding result and Kd data for 14 molecules are collected here from article PMC11051826, “Screening and Application of DNA Aptamers for Heparin-Binding Protein”.

Data set [1] addresses T1, Heparin-binding protein (HBP) (Homo sapiens, UniProt P20160 27-248).
T1 sequence: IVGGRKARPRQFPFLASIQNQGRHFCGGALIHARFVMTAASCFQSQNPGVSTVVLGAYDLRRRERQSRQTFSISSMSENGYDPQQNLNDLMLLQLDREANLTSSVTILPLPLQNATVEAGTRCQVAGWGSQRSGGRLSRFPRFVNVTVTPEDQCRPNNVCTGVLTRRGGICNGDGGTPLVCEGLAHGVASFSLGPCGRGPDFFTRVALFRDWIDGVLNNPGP
The experiment in a line: SPR; SPR: Biacore T200, CM5 with 815 RU HBP, aptamer 0-1 uM in PBS (NaCl 137 mM, KCl 2.67 mM, Na2HPO4 10 mM, KH2PO4 2 mM, pH 7.4; composition given for CD), 25 C; flow: 500 nM aptamer, PBS, room temperature, 60 min. Particulars: protein: commercial. (SPR reads the build-up and loss of mass on a sensor chip optically.)

The next data set has as its target T2, C-reactive protein (CRP) (UniProt P02741 19-224).
T2 sequence: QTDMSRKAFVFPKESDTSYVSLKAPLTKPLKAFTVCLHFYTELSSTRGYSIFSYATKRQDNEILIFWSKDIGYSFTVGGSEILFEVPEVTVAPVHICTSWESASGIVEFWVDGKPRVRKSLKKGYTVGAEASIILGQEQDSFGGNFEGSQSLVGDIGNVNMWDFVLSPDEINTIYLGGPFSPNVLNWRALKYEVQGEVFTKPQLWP
The data set can be described thus: flow cytometry (magnetic beads); 500 nM aptamer; SPR: Biacore T200, CM5 with 815 RU HBP, aptamer 0-1 uM in PBS (NaCl 137 mM, KCl 2.67 mM, Na2HPO4 10 mM, KH2PO4 2 mM, pH 7.4; composition given for CD), 25 C; flow: 500 nM aptamer, PBS, room temperature, 60 min. The note with it: protein: commercial; chain copies: 5; label: FAM in flow cytometry.

In the next data set the target is Interleukin-6 (IL-6) (UniProt P05231 30-212). Described as above. The note with it: protein: commercial; label: FAM in flow cytometry. (In flow cytometry, cells or beads pass a laser one at a time.)
Sequence of Interleukin-6 (IL-6) (P05231 30-212): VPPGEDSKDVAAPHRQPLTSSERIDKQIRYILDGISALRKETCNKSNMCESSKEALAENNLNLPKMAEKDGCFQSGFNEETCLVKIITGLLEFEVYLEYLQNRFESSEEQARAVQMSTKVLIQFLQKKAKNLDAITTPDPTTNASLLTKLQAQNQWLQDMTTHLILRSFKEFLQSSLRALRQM
Another data set has as its target T3, Serum amyloid A1 (SAA1) (UniProt P0DJI8 19-122).
T3 sequence: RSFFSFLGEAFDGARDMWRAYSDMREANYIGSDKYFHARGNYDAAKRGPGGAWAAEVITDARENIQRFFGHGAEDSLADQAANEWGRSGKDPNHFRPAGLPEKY
The description is as above. The note with it: protein: commercial; label: FAM in flow cytometry.

The next data set deals with T4, Procalcitonin (PCT) (UniProt P01258 26-141).
T4 sequence: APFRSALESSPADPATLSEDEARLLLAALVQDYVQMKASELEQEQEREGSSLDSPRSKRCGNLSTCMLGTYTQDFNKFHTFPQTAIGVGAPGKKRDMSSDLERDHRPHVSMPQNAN
Described as above. The note with it: protein: commercial; label: FAM in flow cytometry.

Data set [2] has as its target T1, Heparin-binding protein (HBP). The experiment in a line: SPR; HBP immobilized, PBS, 25 C; SPR: Biacore T200, CM5 with 815 RU HBP, aptamer 0-1 uM in PBS (NaCl 137 mM, KCl 2.67 mM, Na2HPO4 10 mM, KH2PO4 2 mM, pH 7.4; composition given for CD), 25 C; flow: 500 nM aptamer, PBS, room temperature, 60 min. The note with it: protein: commercial; label: FAM in flow cytometry.

B1: Apt-07 (ssDNA)
DNA: TTCAGCACTCCACGCATAGCCTTGCCTACCGGACGAAGTACTCAGTCACTCCGTGACCTATGCGTGCTACCGTGAA
The molecule B1 gave a binding signal in data set [1] of 76.2 RU.

B2: Apt-15 (ssDNA)
DNA: TTCAGCACTCCACGCATAGCTTCACCTACTGCCCTAGCTCAGCCGTCTCCATCCGGCCTATGCGTGCTACCGTGAA
Take B2: the binding signal in data set [1] is 72.5 RU.

B3: Apt-01 (ssDNA)
DNA: TTCAGCACTCCACGCATAGCTTCACCTACCGCAATCCGTTGCTCAGTGCTACCGCACCTATGCGTGCTACCGTGAA
In general, Kd refers to the free concentration of one partner at which half of the binding sites on the other are occupied at equilibrium, for simple one-to-one binding. For the molecule B3, the binding result with C-reactive protein (CRP), in the data set with Interleukin-6 (IL-6), with Serum amyloid A1 (SAA1) and with Procalcitonin (PCT) was “no binding” in each case. Besides, binding in data set [2] was characterised by a dissociation constant (Kd) of 3.42 nM. The molecule further gave a binding signal in data set [1] (label: FAM in flow cytometry) of 424 RU.

B4: Apt-08 (ssDNA)
DNA: TTCAGCACTCCACGCATAGCTCATCGCGAGCGACACGTTACCGTGCTTTACTACCGCCTATGCGTGCTACCGTGAA
On to B4, for which the binding signal in data set [1] worked out at 79 RU.

B5: Apt-13 (ssDNA)
DNA: TTCAGCACTCCACGCATAGCTCATCGCCTGCGACATGCTAGCATGCTTTACTACTGCCTATGCGTGCTACCGTGAA
As to B5, the binding result in the data set with C-reactive protein (CRP), with Interleukin-6 (IL-6), with Serum amyloid A1 (SAA1) and with Procalcitonin (PCT) was “no binding” each time. In addition, the Kd in data set [2] turned out to be 1.04 nM.

B6: Apt-05 (ssDNA)
DNA: TTCAGCACTCCACGCATAGCTTCACCTACACCGCGACCGCGTTCAGCCTCTGCAGGCCTATGCGTGCTACCGTGAA
Molecule B6 yielded a binding signal in data set [1] of 132 RU.

B7: Apt-20 (ssDNA)
DNA: TTCAGCACTCCACGCATAGCTTCACCTACCGCCGAAGGCTCAGTCCGTGCTTCGGACCTATGCGTGCTACCGTGAA
For the molecule B7, in data set [1], the binding signal came out at 99 RU.

B8: Apt-09 (ssDNA)
DNA: TTCAGCACTCCACGCATAGCCTTGCCTACCGATCCTGGATCTCAGCTGTACCACAGCCTATGCGTGCTACCGTGAA
As to B8, the binding signal in data set [1] was determined as 87.5 RU.

B9: Apt-18 (ssDNA)
DNA: TTCAGCACTCCACGCATAGCTTTACCTACCGCATCGCTCAGTCAACCATTGGTGGACCTATGCGTGCTACCGTGAA
B9 had a binding signal in data set [1] of 41.2 RU.

B10: Apt-04 (ssDNA)
DNA: TTCAGCACTCCACGCATAGCTTCATCTACCCCGCCAAGGTCAGCCACGTCAGTGTGCCTATGCGTGCTACCGTGAA
With B10, in data set [1], the binding signal stood at 121 RU.

B11: Apt-12 (ssDNA)
DNA: TTCAGCACTCCACGCATAGCTTCACCTACTGGCATATGCCTCAGTCCACTCCTGGACCTATGCGTGCTACCGTGAA
In data set [1], B11 yielded a binding signal of 107 RU.

B12: Apt-03 (ssDNA)
DNA: TTCAGCACTCCACGCATAGCTTCACCTACGAACGCCAGTGACAGCACCGATCAGTGCCTATGCGTGCTACCGTGAA
In data set [1], B12 showed a binding signal of 119 RU.

B13: Apt-14 (ssDNA)
DNA: TTCAGCACTCCACGCATAGCTTCACCTACCGCCAATCAGCTCAGTGTGTCTCCACACCTATGCGTGCTACCGTGAA
In data set [1], B13 had a binding signal of 50.3 RU.

B14: Apt-02 (ssDNA)
DNA: TTCAGCACTCCACGCATAGCTTCACCTACCGCGCAGCTCAGTCGTTGCCCACACGACCTATGCGTGCTACCGTGAA
Take B14: the binding result with C-reactive protein (CRP), with Interleukin-6 (IL-6), with Serum amyloid A1 (SAA1) and with Procalcitonin (PCT) was “no binding” throughout. In data set [2], this molecule displayed a Kd of 1.44 nM. The molecule further gave a binding signal in data set [1] (label: FAM in flow cytometry) of 162 RU.
